Assay results: US20220056125A1

Molecular target: cynomolgus PAR-2 on cells (cynomolgus monkey)
Assay: cell-based or functional assay

IC50 mean, calcium flux at SLIGKV EC80, Nomad line: 3.98 nM
IC50 mean, β-arrestin at SLIGKV EC80, Nomad line: 15.2 nM
B1: P24E1102 (antibody, human IgG4 S228P, kappa, V domains shown)
VH: QVQLVQSGAEVKKPGSSVKVSCKASGFSLSSYAISWVRQAPGQGLEWMGVIWGNQNVYYAQKFQGRVTITADESTSTAYMELSSLRSEDTAVYYCARWKGYKDYPFDYWGQGTLVTVSS
VL: EIVLTQSPATLSLSPGERATLSCRASQNVYKWLDWYQQKPGQAPRLLIYNANTRATGIPARFSGSGSGRDFTLTISSLEPEDFAVYYCQQHHSGWTFGGGTKVEIKR
